Results: patent US8344120B2, “Nucleic acid molecules encoding rage fusion proteins” (TransTech Pharma, Inc., priority 2006, dated 2013)

Legend:
[1] = test system: animal model of stroke; test: Animal model of stroke (ischemia/reperfusion); type: in vivo, mice; conditions: treated just prior to reperfusion
Procedure: For example, the RAGE fusion proteins of the present invention may also be used to treat stroke. […] In this model, the […] of a mouse is ligated and then reperfused to form an infarct. To assess the efficacy of RAGE fusion proteins to treat or prevent stroke, mice were treated with sRAGE or TTP-4000 or control immunoglobulin just prior to reperfusion. […] TTP-4000 was also compared to sRAGE in a disease relevant animal model of stroke. In this model, the […] of a mouse was ligated for 1 hour followed by 23 hours of reperfusion at which point the mice were sacrificed and the area of the infarct in the brain was assessed. […] After the nylon suture had been in place for 1 hour, the animal was re-anesthetized, rectal temperature was recorded and the suture was removed and the incision closed. Infarct volume was determined by anesthetizing the animals with an intraperitoneal injection of sodium pentobarbital (50 mg/kg) and then removing the brains. […] The infarct area in each section was determined with a computer-assisted image analysis system, consisting of a Power Macintosh computer equipped with a Quick Capture frame grabber card, Hitachi CCD camera mounted on a camera stand. […] The images were captured and the total area of infarct was determined over the sections. […] Summing the infarct volumes of the sections calculated the total infarct volume. […]

[2] = Solubility of TTP-4000 in formulation buffers; type: physicochemical; conditions: citrate versus histidine buffers
Procedure: Formulations containing sodium acetate, sodium citrate, sodium phosphate, sodium succinate, histidine, and sodium chloride were tested along with sucrose and mannitol. Various pH's between 5.5 and 7.0 were also evaluated.
Based on the solubility of the RAGE fusion protein in formulations containing one or more of sodium citrate, histidine, sucrose, mannitol, and Tween 80 at a pH of 7.0 or less, formulations containing one or more of these buffers, lyoprotectants, or surfactant were selected for further study.

[3] = biological target: T1, S100b (S100) (Homo sapiens, UniProt P04271); test: In vitro ligand binding ELISA, immobilized S100b; conditions: ligand 5 micrograms per well; fusion protein at increasing dilutions, 37° C. one hour
T1 sequence (P04271 1-92): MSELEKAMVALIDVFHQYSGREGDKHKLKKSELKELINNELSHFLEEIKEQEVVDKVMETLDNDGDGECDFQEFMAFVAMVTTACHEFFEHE
Procedure: For example, the RAGE fusion protein may be used in a binding assay to identify potential RAGE ligands. In one example embodiment of such a binding assay, a known RAGE ligand may coated onto a solid substrate (e.g., Maxisorb plates) at a concentration of about 5 micrograms per well, where each well contains a total volume of about 100 microliters (4). The plates may be incubated at 4° C. overnight to allow the ligand to absorb or bind to the substrate. Alternatively, shorter incubation periods at higher temperature (e.g., room temperature) may be used. […] The RAGE fusion protein bound to the immobilized ligand may be detected in a variety of ways. […] The bound complex may be detected by adding the alkaline phosphatase substrate, para-nitrophenylphosphate (PNPP), and measuring conversion of PNPP to para-nitrophenol (PNP) as an increase in absorbance at 405 nm. […] In the absence of ligand (i.e., coating with only BSA) there was no increase in absorbance. […] Binding was detected by the addition of an immunodetection complex containing a monoclonal mouse anti-human IgG1 diluted 1:11,000 to a final assay concentration (FAC) of 21 ng/100 μL, a biotinylated goat anti-mouse IgG diluted 1:500, to a FAC of […], and an avidin-linked alkaline phosphatase. […]

B1: TTP-4000: four domain RAGE fusion protein: human RAGE N-terminal sequence (to position 251) linked to human IgG Fc (γ1) without hinge; SEQ ID NO: 34/56 (protein)
chain: QNITARIGEPLVLKCKGAPKKPPQRLEWKLNTGRTEAWKVLSPQGGGPWDSVARVLPNGSLFLPAVGIQDEGIFRCQAMNRNGKETKSNYRVRVYQIPGKPEIVDSASELTAGVPNKVGTCVSEGSYPAGTLSWHLDGKPLVPNEKGVSVKEQTRRHPETGLFTLQSELMVTPARGGDPRPTFSCSFSPGLPRHRALRTAPIQPRVWEPVPLEEVQLVVEPEGGAVAPPSVFLFPPKPKDTLMISRTPEVTCVVVDVSHEDPEVKFNWYVDGVEVHNAKTKPREEQYNSTYRVVSVLTVLHQDWLNGKEYKCKVSNKALPAPIEKTISKAKGQPREPQVYTLPPSRDELTKNQVSLTCLVKGFYPSDIAVEWESNGQPENNYKTTPPVLDSDGSFFLYSKLTVDKSRWQQGNVFSCSVMHEALHNHYTQKSLSLSPGK
- reduction in infarct volume compared to sRAGE [1]: significantly greater reduction in infarct volume
- solubility in formulations, in words [2]: may be more soluble in formulations containing histidine
- binding to immobilized S100b (increase in absorbance at 405 nm) [3]: specifically interact
